Results on one molecule are retold here after US20090311237A1, “Combination therapy using a soluble hyaluronidase and a bisphosphonate” (priority 2008, published 2009).

Some results are limits rather than exact numbers.

Data set [1] in a line: Hyaluronidase activity microturbidity (turbidometric) assay. Type of data set: biochemical. The conditions noted are these: purified soluble rHuPH20 (Gen1, 5 L bioreactor); USP reference standard. The protocol: Hyaluronidase activity can be assessed using methods well known in the art. In one example, activity is measured using a microturbidity assay. This is based on the formation of an insoluble precipitate when hyaluronic acid binds with serum albumin. The activity is measured by incubating hyaluronidase with sodium hyaluronate (hyaluronic acid) for a set period of time (e.g. 10 minutes) and then precipitating the undigested sodium hyaluronate with the addition of acidified serum albumin. The turbidity of the resulting sample is measured at 640 nm after an additional development period. […] Following incubation with hyaluronidase, the residual biotinylated hyaluronic acid substrate is detected using an avidin-peroxidase reaction, and compared to that obtained following reaction with hyaluronidase standards of known activity.
Hyaluronidase activity of soluble rHuPH20 in samples such as cell cultures, purification fractions and purified solutions was determined using a turbidometric assay, which based on the formation of an insoluble precipitate when hyaluronic acid binds with serum albumin. The activity is measured by incubating soluble rHuPH20 with sodium hyaluronate (hyaluronic acid) for a set period of time (10 minutes) and then precipitating the undigested sodium hyaluronate with the addition of acidified serum albumin. […]

In a further data set the test system is Sprague Dawley rats. Kind of data set: Injection site reactions (gross ISR incidence, lesion area) after intradermal injection of zoledronic acid with or without rHuPH20. Type of data set: in vivo, rat. The conditions noted are these: for shift of half maximal effect (EC50) of ZA concentration vs lesion area curve: with vs without 10,000 U/mL rHuPH20. The protocol:
A rodent model of local injection site injury caused by ZA injection was employed for the study. […] Injection into the dermis facilitates external visualization and assessment of the irritant.
Nine to ten week old female Sprague Dawley rats, having approximate body weight of 200-250 grams, were employed for the study. One day prior to injection, rats were shaved and hair on the back and flank area were removed by Nair® cream (exposure less than 1 min to depilation cream) followed by deep wash with warm tap water. On the day of dosing, all rats were injected intradermally in flank area (one or two injection spots per side), with 0.1 or 0.2 mL as indicated of zoledronic acid solution, with or without rHuPH20, at each corresponding concentration as shown in study design table. Injection site appearance was observed and quantified by blind assessment each day following the injection until the end of the study, at which time animals were sacrificed and the skin around the dosing area as well as a part of the skin that was not effected by the dosing were collected and fixed in 10% neutral buffered formalin (NBF) and further embedded in paraffin, 5 μm sections were cut for H&E stain and histopathology evaluation.
Lesion area was calculated by the following formula: W×L×¼π. Quantitative results were analyzed using one-way analysis of variance (ANOVA) method, followed by Dunnett's comparison method (Prizm 4 program). The probability values of less than 0.05 (two-tailed) were used as the critical level of significance for all tests. Groups with a sample size of two were excluded from analysis. If the sample size was 2 for the control group, there were no statistical analyses at that interval for any of the groups. Histopathologic findings were characterized by semi-quantitative analysis of necrosis and infiltration in the skin tissue. The incidences of each finding were compared with control groups by Chi-square test.
Prior to ZA intradermal injection, rats were randomized by body weight into 7 groups of 1 or 2 rats per group (Table 2). Rats were injected with either 0.1 mL or 0.2 mL of each corresponding concentration intradermally at two separate locations on each shaved flank side for a total of 4 injections for each animal. Injection sites were observed daily post-injection for four days. Pictures of injection site reaction (ISR) area were captured by digital camera and lesion area was scored for induration, erythema, or ulceration. Two perpendicular diameters (width & length) of injection site lesion were measured by microcaliper. The lesion area was defined as the area bounded by the outer edge of the erythemic zone. Upon completion of the study, the animals were euthanized and skin at the injection site and from an untreated area of the back of the rat were excised, mounted flat onto a piece of cardboard, and placed in 10% NBF.
A series of experiments were conducted in which various dosing concentrations of rHuPH20 were tested for the ability to reduce acute injection site lesions. Prior to ZA intra-dermal injection, rats were randomized by body weight into 11 groups of 2 rats per group. Rats were injected intradermally with 0.1 mL of each co-formulated solution as shown in Table 5 and observed daily with ISR development assessed as in Section B. Four days after injection, rats were sacrificed and the skin at the injection site as well as untreated skin from the back was excised, mounted flat onto a piece of cardboard, and placed in 10% NBF.
Prior to ZA intra-dermal injection, rats were randomized by body weight into 6 groups of 3 rats per group (Table 6). Rats were intradermally injected with 0.1 mL of each corresponding co-formulated solution at two separate locations, two on each shaved flank side, for a total of 4 injections for each animal. Injection sites were observed daily with ISR development assessed as in Section B for 6 days. […]

B1: rHuPH20: soluble form of human PH20 hyaluronidase recombinantly expressed in Chinese Hamster Ovary (CHO) cells (protein, listed as Homo sapiens)
chain: LNFRAPPVIPNVPFLWAWNAPSEFCLGKFDEPLDMSLFSFIGSPRINATGQGVTIFYVDRLGYYPYIDSITGVTVNGGIPQKISLQDHLDKAKKDITFYMPVDNLGMAVIDWEEWRPTWARNWKPKDVYKNRSIELVQQQNVQLSLTEATEKAKQEFEKAGKDFLVETIKLGKLLRPNHLWGYYLFPDCYNHHYKKPGYNGSCFNVEIKRNDDLSWLWNESTALYPSIYLNTQQSPVAATLYVRNRVREAIRVSKIPDAKSPLPVFAYTRIVFTDQVLKFLSQDELVYTFGETVALGASGIVIWGTLSIMRSMKSCLLLDNYMETILNPYIINVTLAAKMCSQVLCQEQGVCIRKNWNSSDYLHLNPDNFAIQLEKGGKFTVRGKPTLEDLEQFSEKFYCSCYSTLSCKEKADVKDTDAVDVCIADGVCIDAFLKPPMETEEPQIFY
modifications: soluble rHuPH20 1-447
notes: soluble form of human PH20 hyaluronidase recombinantly expressed in Chinese Hamster Ovary (CHO) cells
In the case of B1, in data set [1], the specific activity is > 65,000 USP Units/mg protein. The “rHuPH20 concentration with maximal effect on ISR formation” value in the data set on Sprague Dawley rats (rat ID model, preliminary experiments) is given as 10,000 U/mL. For the same molecule, the “suppression of injection site lesion formation” value in the data set with Sprague Dawley rats (rat ID, 10,000 U/mL rHuPH20 co-formulated with ZA up to 0.05 mg/mL) was “complete suppression”. Moreover, the “threshold of rHuPH20 in lesion area reduction” value in the data set with Sprague Dawley rats (rat ID, all ZA concentrations tested (0.05 to 0.4 mg/ml)) was 100 U/mL. In the data set with Sprague Dawley rats (rat ID, regardless of ZA concentration (0.05 to 0.4 mg/ml)), the “rHuPH20 concentration at which maximal activity was reached” value came to 1000 U/mL. Further, the “shift of half maximal effect (EC50) of ZA concentration vs lesion area curve” value in the data set with Sprague Dawley rats (rat ID, day 2) is “approximately 2.4 fold”; with Sprague Dawley rats (rat ID, day 3), around 3.3 fold; in the data set on Sprague Dawley rats (rat ID, day 4), around 5.7 fold.
